Assay results as given in patent publication US20190247399A1, “COMBINATION OF AN ANTI-CD20 ANTIBODY, PI3 KINASE-DELTA INHIBITOR, AND ANTI-PD-1 OR ANTI-PD-L1 ANTIBODY FOR TREATING HEMATOLOGICAL CANCERS” (TG Therapeutics, Inc., priority 2016, published 2019).
Structures can show the parent of a compound that is named as a salt. Blank lines part the entries; values can stand above or below the molecule they belong to.

Experiments:
patients with CLL = conditions: pembrolizumab alone; cited from earlier work
[1] = oral TGR-1202 under fasted and fed conditions, pharmacokinetics; conditions: in vivo, 200 mg, single oral dose of 200 mg; for AUC(0-inf): read-out: AUC0-inf, Geometric LS Means; for AUC(0-t): read-out: AUC0-t, Geometric LS Means; for Cmax: read-out: Cmax, Geometric LS Means
[2] = micronized vs non-micronized TGR-1202 formulations, pharmacokinetics; conditions: in vivo, po, 200 mg, single oral dose of 200 mg; for AUC(0-inf): read-out: AUC0-inf, Geometric LS Means; for AUC(0-t): read-out: AUC0-t, Geometric LS Means; for Cmax: read-out: Cmax, Geometric LS Means
[3] = system: patients with relapsed and refractory hematologic malignancies; conditions: single agent; relapsed or refractory hematologic malignancies; cited from earlier work
PI3K isoforms (Human) α = PI3K isoforms (Human) α (Homo sapiens, UniProt P42336); experiment: biochemical
Chain of PI3K isoforms (Human) α (P42336 whole entry, canonical isoform): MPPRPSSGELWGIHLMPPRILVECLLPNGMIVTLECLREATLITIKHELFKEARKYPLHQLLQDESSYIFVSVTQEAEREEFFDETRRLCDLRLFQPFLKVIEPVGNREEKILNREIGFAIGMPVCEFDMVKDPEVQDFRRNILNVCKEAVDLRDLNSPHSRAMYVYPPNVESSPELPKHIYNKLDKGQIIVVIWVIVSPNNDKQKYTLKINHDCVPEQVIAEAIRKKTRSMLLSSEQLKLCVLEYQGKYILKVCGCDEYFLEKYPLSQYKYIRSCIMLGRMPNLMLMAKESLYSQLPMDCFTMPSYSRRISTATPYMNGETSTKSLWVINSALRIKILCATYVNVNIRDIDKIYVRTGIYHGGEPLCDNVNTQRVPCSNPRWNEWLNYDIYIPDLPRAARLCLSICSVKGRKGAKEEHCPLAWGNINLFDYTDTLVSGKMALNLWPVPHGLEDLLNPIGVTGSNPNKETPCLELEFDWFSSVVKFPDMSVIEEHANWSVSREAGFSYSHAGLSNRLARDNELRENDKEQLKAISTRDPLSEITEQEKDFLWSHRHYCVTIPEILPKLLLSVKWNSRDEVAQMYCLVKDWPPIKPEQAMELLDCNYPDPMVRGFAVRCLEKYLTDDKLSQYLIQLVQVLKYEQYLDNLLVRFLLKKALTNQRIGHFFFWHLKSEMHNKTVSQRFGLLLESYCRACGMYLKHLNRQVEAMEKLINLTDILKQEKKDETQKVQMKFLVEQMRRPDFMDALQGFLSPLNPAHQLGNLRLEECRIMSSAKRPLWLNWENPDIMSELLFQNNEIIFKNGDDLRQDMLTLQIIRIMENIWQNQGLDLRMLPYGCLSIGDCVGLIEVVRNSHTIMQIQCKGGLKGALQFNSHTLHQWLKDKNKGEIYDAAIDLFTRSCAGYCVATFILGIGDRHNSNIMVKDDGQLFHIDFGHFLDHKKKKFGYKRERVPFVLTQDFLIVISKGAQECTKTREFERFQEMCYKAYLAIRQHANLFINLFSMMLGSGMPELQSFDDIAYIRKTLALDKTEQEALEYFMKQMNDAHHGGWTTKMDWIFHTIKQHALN
Chain of PI3K isoforms (Human) α (P27986 whole entry partner, canonical isoform): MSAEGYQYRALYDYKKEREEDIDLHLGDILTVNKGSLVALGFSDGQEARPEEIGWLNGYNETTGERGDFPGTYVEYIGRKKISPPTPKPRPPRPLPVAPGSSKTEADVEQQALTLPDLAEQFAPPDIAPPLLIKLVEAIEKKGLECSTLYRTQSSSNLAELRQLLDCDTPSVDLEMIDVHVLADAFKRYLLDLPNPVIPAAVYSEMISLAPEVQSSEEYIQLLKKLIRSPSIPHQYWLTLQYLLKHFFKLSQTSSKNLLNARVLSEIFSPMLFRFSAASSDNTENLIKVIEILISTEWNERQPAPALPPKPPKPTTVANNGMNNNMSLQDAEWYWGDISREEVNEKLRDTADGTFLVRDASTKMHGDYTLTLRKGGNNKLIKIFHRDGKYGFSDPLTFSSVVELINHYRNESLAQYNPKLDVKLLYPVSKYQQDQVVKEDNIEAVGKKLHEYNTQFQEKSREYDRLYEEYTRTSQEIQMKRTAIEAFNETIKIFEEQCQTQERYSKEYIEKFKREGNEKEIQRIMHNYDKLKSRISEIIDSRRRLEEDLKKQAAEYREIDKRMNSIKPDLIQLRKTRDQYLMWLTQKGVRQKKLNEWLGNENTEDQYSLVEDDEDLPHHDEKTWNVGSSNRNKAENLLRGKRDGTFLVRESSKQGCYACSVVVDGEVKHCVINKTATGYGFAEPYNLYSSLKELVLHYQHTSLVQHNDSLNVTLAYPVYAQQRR

PI3K isoforms (Human) β = PI3K isoforms (Human) β (Homo sapiens, UniProt P42338); experiment: biochemical
Chain of PI3K isoforms (Human) β (P42338 whole entry, canonical isoform): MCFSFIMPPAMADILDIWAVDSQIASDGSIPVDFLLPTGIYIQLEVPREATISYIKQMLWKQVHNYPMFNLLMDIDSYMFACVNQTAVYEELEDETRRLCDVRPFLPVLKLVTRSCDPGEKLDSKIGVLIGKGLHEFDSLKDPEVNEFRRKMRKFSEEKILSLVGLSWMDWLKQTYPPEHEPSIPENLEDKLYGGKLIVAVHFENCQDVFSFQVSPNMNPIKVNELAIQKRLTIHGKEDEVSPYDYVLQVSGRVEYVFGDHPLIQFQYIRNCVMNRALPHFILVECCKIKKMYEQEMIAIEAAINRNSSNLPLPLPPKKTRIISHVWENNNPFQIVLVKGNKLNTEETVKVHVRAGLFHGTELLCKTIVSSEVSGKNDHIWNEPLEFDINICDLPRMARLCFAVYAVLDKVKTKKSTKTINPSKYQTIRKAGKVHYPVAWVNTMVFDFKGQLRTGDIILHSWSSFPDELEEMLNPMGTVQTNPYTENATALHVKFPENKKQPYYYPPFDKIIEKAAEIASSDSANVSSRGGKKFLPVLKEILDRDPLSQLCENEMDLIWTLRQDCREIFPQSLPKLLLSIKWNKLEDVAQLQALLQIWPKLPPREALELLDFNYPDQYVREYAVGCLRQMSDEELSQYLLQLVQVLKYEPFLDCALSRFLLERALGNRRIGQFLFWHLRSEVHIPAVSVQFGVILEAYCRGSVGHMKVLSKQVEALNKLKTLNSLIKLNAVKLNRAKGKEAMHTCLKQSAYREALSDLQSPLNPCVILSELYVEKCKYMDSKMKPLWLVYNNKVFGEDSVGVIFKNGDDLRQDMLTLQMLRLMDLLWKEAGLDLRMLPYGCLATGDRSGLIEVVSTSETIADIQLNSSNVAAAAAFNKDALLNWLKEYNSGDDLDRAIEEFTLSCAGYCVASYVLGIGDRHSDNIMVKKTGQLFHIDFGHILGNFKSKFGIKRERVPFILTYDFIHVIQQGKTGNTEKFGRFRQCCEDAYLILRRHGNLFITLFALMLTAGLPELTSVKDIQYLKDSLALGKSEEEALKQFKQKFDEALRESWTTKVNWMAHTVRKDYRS
Chain of PI3K isoforms (Human) β (P27986 whole entry partner, canonical isoform): as the sequence (P27986 whole entry partner, canonical isoform) above

PI3K isoforms (Human) γ = PI3K isoforms (Human) γ (Homo sapiens, UniProt P48736); experiment: biochemical
Chain of PI3K isoforms (Human) γ (P48736 whole entry, canonical isoform): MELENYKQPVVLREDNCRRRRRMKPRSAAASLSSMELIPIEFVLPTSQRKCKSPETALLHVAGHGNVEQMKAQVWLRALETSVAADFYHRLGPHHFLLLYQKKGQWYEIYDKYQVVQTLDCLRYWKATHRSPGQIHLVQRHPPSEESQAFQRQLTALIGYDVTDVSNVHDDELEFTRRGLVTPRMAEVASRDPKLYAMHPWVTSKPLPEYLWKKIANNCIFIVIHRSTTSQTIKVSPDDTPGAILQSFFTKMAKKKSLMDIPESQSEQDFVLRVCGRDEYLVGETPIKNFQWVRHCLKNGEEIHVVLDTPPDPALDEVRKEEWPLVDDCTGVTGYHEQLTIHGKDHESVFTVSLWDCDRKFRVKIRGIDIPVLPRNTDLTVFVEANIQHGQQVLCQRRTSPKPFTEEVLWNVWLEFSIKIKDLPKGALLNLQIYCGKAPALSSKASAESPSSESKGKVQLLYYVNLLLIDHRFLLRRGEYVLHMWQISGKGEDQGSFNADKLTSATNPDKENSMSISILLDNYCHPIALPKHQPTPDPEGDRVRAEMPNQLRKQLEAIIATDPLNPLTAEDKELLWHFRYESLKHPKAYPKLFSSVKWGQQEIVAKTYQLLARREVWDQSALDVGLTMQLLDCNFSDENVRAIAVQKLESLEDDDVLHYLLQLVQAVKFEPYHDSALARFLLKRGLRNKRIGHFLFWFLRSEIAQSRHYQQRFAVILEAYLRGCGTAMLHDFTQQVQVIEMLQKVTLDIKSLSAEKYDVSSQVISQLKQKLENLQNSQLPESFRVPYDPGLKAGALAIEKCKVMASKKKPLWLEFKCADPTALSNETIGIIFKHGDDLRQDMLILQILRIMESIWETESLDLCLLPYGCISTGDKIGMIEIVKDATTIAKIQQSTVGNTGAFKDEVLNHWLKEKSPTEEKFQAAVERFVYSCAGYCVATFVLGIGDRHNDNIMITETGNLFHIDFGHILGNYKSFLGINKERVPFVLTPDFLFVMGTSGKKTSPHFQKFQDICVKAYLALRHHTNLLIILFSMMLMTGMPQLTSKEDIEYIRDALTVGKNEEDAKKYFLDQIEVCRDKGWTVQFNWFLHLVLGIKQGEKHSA

PD-L1 [4] = molecular target: T1, PD-L1 (Homo sapiens, UniProt Q9NZQ7); experiment: Octet antibody binding kinetics
T1 sequence (Q9NZQ7 19-290): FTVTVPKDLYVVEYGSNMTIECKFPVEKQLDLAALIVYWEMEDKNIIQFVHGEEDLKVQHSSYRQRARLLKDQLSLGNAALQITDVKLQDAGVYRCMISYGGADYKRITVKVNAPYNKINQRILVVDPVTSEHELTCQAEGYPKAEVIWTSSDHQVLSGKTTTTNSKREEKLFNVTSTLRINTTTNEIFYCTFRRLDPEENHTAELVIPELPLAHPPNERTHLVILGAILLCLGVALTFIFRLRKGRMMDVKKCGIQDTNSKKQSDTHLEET
Description: (§1) FIGS. 2A-2C are graphs showing the binding kinetics of exemplary anti-PD-L1 antibody CTI-48 against human PD-L1 (FIG. 2A), mouse PD-L1 (FIG. 2B), and cyno PD-L1 (FIG. 2C).
(§2) Octet data analysis was used in determining affinity measurements to assess antibody binding kinetics. 2 mL of the loading sample was prepared at 20 ug/mL (default concentration) in kinetic buffer. Aliquot at least 200 uL into a black 96-well plate. Concentration ranges for the sample were based on the estimated KD of the interaction (if available). […] A 7-point dilution was made into the sample column using kinetic buffer as the sample diluent. The last well of the sample column was used as a reference well later in data analysis, should only contain kinetic buffer.
(§3) Biosensors were hydrated in kinetic buffer (lx PBS, 0.1% BSA, 0.02% Tween20, 0.05% Sodium Azide) at room temperature for 10 minutes.

cynoPDL1 = experiment: Octet antibody binding kinetics; set-up: species or system cyno
Description: as §1, §2, §3

PD-L1 [5] = molecular target: T1, PD-L1; experiment: ForteBio affinity measurements; conditions: 100 nM antigen, 1:1 binding model
Description: ForteBio affinity measurements were performed generally as previously described (see, e.g., Estep, P. et al., mAbs 5:270-278 (2013)). Briefly, ForteBio affinity measurements were performed by loading IgGs on-line onto AHQ sensors. Sensors were equilibrated off-line in assay buffer for 30 minutes and then monitored on-line for 60 seconds for baseline establishment. Sensors with loaded IgGs were exposed to 100 nM antigen for 5 minutes; afterwards, they were transferred to assay buffer for 5 minutes for off-rate measurement. Kinetics were analyzed using the 1:1 binding model.

SUDHL-1 lymphoma cells = experiment: ADCC activity of anti-PD-L1 antibodies; assay type: cell-based; conditions: PD-L1+ lymphoma cells with primary NK cells
Description: Reporter bioassays were performed in order to determine antibody-dependent cell—mediates cytotoxicity (ADCC) of the disclosed anti-PD-L1 antibodies. The assays utilized SUDHL-1 lymphoma cells and donor PBMCs. Various antibodies were tested at concentrations of 1 or 3 μg/ml.
The results of this study, which are shown for exemplary anti-PD-L1 antibody CTI-48 in FIG. 3, are represented by percent cytotoxicity following a 4 hour incubation with the disclosed antibodies.

PD-1:PD-L1 ligation = experiment: immunoblockade reporter (NFAT) assay, PD1/PD-L1 Blockade Assay Kit; assay type: cell-based; conditions: Jurkat PD-1 Effector cells and aAPC PD-L1 cells
Description: Immunoblockade assays were performed using a PD1/PD-L1 Blockade Assay Kit (Promega, CS187111) in 96 well plates. Three major events occur in the assay. Event 1: TCR-mediated NFAT activation occurs when engineered Jurkat PD-1 Effector cells and aAPC (artificial antigen presenting cell) PD-L1 cells are engaged through TCR/TCR activator interaction. Event 2: Inhibition of NFAT signal by PD-1:PD-L1 ligation when no blocking antibodies are present. Event 3: Recovery of NFAT signal by addition of anti-PD-1 or anti-PD-L1 blocking antibody.
The day before assay, 25 mL of cell recovery medium (10% FBS/F-12) was made in 50 mL conical tubes for Thaw-and-Use PD-L1 cells by adding 2.5 mL FBS to 22.5 mL F-12. One vial of Thaw-and-Use PD-L1 cells (CS187103) was removed from freezer storage and transferred to the bench on dry ice. The vial was thawed in a 37° C. water bath until cells were just thawed (about 3-4 minutes). The cell suspension was gently mixed in the vial by pipetting up and down. All the cells (0.5 mL) were transferred to a tube labeled “PD-L1 cells” containing 14.5 mL cell recovery medium, followed by gentle inversions. […]
Thaw-and-Use PD-1 Effector cells (CS187105) were transferred into the assay plates, and the plates were incubated for six hours at 37° C. in CO2 incubator. […] Luminescence was measured in a POLARstar Omega plate reader with 0.5 second integration.

[6] = molecular target: T2, binding of PD-L1 and B7.1 (Homo sapiens, UniProt Q9NZQ7); experiment: PD-L1/B7.1 inhibitor screening assay; conditions: PD-L1 coated plate, B7.1-biotin
T2 construct: purchased
T2 sequence (Q9NZQ7 19-238 limits assumed): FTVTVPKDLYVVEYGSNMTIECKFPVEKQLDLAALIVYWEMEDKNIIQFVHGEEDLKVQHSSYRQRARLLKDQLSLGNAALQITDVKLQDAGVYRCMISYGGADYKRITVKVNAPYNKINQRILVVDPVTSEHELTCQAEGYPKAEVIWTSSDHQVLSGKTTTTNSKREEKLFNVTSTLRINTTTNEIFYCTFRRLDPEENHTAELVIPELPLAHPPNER
Text: A commercially available assay kit was used to screen and profile the interaction of the disclosed antibodies and the PD-L1/B7.1 interaction. The kit came in a 96-well format with biotin-labeled B7-1 (CD80), purified PD-L1, streptavidin-labeled HRP, and assay buffer for 100 binding reactions. The kit was used to detect biotin-labeled B7.1 by streptavidin-HRP.
First, PD-L1 was coated on a 96-well plate. Next, either one of the disclosed antibodies, a positive control, a substrate control, or a blank was added to each well and incubated prior to the addition of B7.1-biotin. Finally, the plate was treated with streptavidin-HRP followed by addition of an HRP substrate to produce chemiluminescence, which can then be measured by a chemiluminescence reader.

IFN-γ production = IFN-γ production in mixed lymphocyte reaction (MLR) cultures; assay type: cell-based; conditions: 4-day MLR culture, antibodies at 10 μg/mL, over control levels
Description: FIG. 6 is a bar graph showing the effect of the disclosed PD-L1 antibodies on IFN-γ production. Antibodies were dosed into mixed lymphocyte reaction (MLR) cultures at a concentration of 10 μg/mL. Data were normalized to vehicle control and are presented as combined mean+SEM (n=6). *p<0.05**p<0.01,***p<0.001 indicates statistical significance when compared to appropriate isotype control (hIgG1) using Ordinary one-way ANOVA with Dunnett's multiple comparison post-hoc test.
Antibodies were dosed into mixed lymphocyte reaction (MLR) cultures in order to determine the effects of the disclosed antibodies on IFN-γ production. The fold change in production of IFN-γ was determined after a 4-day MLR culture with antibodies at a concentration of 10 μg/mL. […] Further, many of the tested PD-L1 antibodies elicited a statistically significant increase in IFN-γ production, including a roughly 10-fold increase by CTI-33 and CTI-55 over control levels.

PD-L1 [7] = molecular target: T1, PD-L1; conditions: cited from earlier work
[8] = molecular target: T3, PD-L1 antigen of the ForteBio affinity measurement (Example 7) (UniProt Q9NZQ7 19-238, limits assumed); experiment: ForteBio BLI, IgG on AHQ sensors, 100 nM antigen, 1:1 model
T3 sequence (Q9NZQ7 19-238 limits assumed): as above

[9] = molecular target: T3, PD-L1 antigen of the ForteBio affinity …; experiment: ForteBio BLI, IgG on AHQ sensors, 100 nM antigen, 1:1 model, monovalent
[10] = molecular target: T4, PD-L1 expressed on transfected CHO cells (UniProt Q9NZQ7 19-290); experiment: competitive FACS on PD-L1+ CHO cells; competitor biotin-labeled PD-1 at 1 µg/ml
T4 construct: whole, on cells; also called PD-L1+cells; PD-L-1+cells
T4 sequence (Q9NZQ7 19-290): as the sequence (Q9NZQ7 19-290) above

koff [8]: 0.0111 s⁻¹ | kon [8]: 461000 M⁻¹ s⁻¹ | Kd [9]: 24.1 nM | IC50 [10]: 3.46 µg/mL
B3: CTI-58 (antibody, V domains shown)
VH: EVQLVQSGGEVKKPGASVKVSCKASGYTLSSHGITWVRQAPGQGLEWMGWISAHSGHASNAQKVEDRVTMTTDTSTNTAYMELRSLTADDTAVYYCARVHAALYHGMDVWGQGTLVTVSS
VL: LSVLTQPPSVSVAPGQTARITCGGNNIGSKGVHWYQQKPGQAPVLVVYDDSDRPSGIPERFSGSNSGNTATLTISRVEAGDEADYYCQVWDSSSDHWVFGGGTKLTVL

koff [8]: 0.00045 s⁻¹ | kon [8]: 520000 M⁻¹ s⁻¹ | Kd [9]: 0.86 nM
B4: CTI-57 (antibody, V domains shown)
VH: EVQLVQSGGEVKKPGASVKVSCKASGYTLSSHGITWVRQAPGQGLEWMGWISAHSGHASNAQKVEDRVTMTTDTSTNTAYMELRSLTADDTAVYYCARVWRALYHGMDVWGQGTLVTVSS
VL: LSVLTQPPSVSVAPGQTARITCGGNNIGSKGVHWYQQKPGQAPVLVVYDDSDRPSGIPERFSGSNSGNTATLTISRVEAGDEADYYCQVWDSSSDHWVFGGGTKLTVL

The next lines start with the molecule.

Molecule: pembrolizumab: humanized monoclonal IgG4 kappa antibody directed against PD-1
ORR (patients with CLL): 0% | median PFS (patients with CLL): 2.4 months

Molecule: CC(C)Oc1ccc(-c2nn([C@@H](C)c3oc4ccc(F)cc4c(=O)c3-c3cccc(F)c3)c3ncnc(N)c23)cc1F [TGR-1202, (S)-2-(1-(4-amino-3-(3-fluoro-4-isopropoxyphenyl)-1H-pyrazolo[3,4-d]pyrim-idin-1-yl)ethyl-6-fluoro-3-(3-fluorophenyl)-4H-chromen-4-one p-toluenesulfonic acid (PTSA) salt]
AUC(0-inf) ([1]; Fasting): 8390 ng·h/mL | AUC(0-t) ([1]; Fasting): 6030 ng·h/mL | Cmax ([1]; Fasting): 177 ng/mL | AUC(0-inf) ([1]; Fed): 14000 ng·h/mL | AUC(0-t) ([1]; Fed): 9690 ng·h/mL | Cmax ([1]; Fed): 483 ng/mL | AUC(0-inf) ([2]; Micronized Formulation): 12400 ng·h/mL | AUC(0-t) ([2]; Micronized Formulation): 9440 ng·h/mL | Cmax ([2]; Micronized Formulation): 372 ng/mL | AUC(0-inf) ([2]; Non-Micronized Formulation): 7720 ng·h/mL | AUC(0-t) ([2]; Non-Micronized Formulation): 5910 ng·h/mL | Cmax ([2]; Non-Micronized Formulation): 166 ng/mL | hepatic toxicity [3]: no reported hepatic toxicity | tolerability [3]: well-tolerated | IC50 (PI3K isoforms (Human) α): > 10000 nM | IC50 (PI3K isoforms (Human) β): 1120 nM | IC50 (PI3K isoforms (Human) γ): 1060 nM

B1: CTI-48: fully human anti-PD-L1 IgG1; HCDR1-3 SEQ ID NO: 11, 19, 27; LCDR1-3 SEQ ID NO: 31, 33, 35 (antibody, chains of the INN, looked up, V domains shown)
VH: EVQLVQSGAEVKKPGSSVKVSCKASGGTFSRSAISWVRQAPGQGLEWMGVIIPAFGEANYAQKFQGRVTITADESTSTAYMELSSLRSEDTAVYYCARGRQMFGAGIDFWGQGTLVTVSS
VL: NFMLTQPHSVSESPGKTVTISCTRSSGSIDSNYVQWYQQRPGSAPTTVIYEDNQRPSGVPDRFSGSIDSSSNSASLTISGLKTEDEADYYCQSYDSNNRHVIFGGGTKLTVL
Kd (PD-L1 [4]): 0.847 nM | kdis (PD-L1 [4]): 0.00061 L/s | kon (PD-L1 [4]): 7.20E+05 l/Ms | Kd (cynoPDL1): 0.555 nM | kdis (cynoPDL1): 0.000635 L/s | kon (cynoPDL1): 1.14E+06 l/Ms | koff (PD-L1 [5]): 0.000633 s⁻¹ | kon (PD-L1 [5]): 768000 M⁻¹ s⁻¹ | Kd (PD-L1 [5]; read-out: IgG KD (M) Monovalent): 8.24e-10 M | ADCC activity (SUDHL-1 lymphoma cells): exhibits ADCC activity | EC50, recovery of NFAT signal (PD-1:PD-L1 ligation): 0.0775 µg/mL | IC50 for binding inhibition [6]: 0.1816 µg/mL | fold change in production of IFN-γ (IFN-γ production): comparable response to a clinical control mAb | binding affinity for PD-L1 (PD-L1 [7]): sub-nanomolar

B2: CTI-07 (antibody, V domains shown)
VH: EVQLVQSGGEVKKPGASVKVSCKASGYTLSSHGITWVRQAPGQGLEWMGWISAHSGHASNAQKVEDRVTMTTDTSTNTAYMELRSLTADDTAVYYCARVHAALYYGMDVWGQGTLVTVSS
VL: LSVLTQPPSVSVAPGQTARITCGGNNIGSKGVHWYQQKPGQAPVLVVYDDSDRPSGIPERFSGSNSGNTATLTISRVEAGDEADYYCQVWDSSSDHWVFGGGTKLTVL
koff [8]: 0.0392 s⁻¹ | kon [8]: 492000 M⁻¹ s⁻¹ | Kd [9]: 79.7 nM
